In patent publication US20210324051A1 (published 2021):

B1: MR78 human monoclonal antibody (antibody, V domains shown)
VH: QLQLQESGPGLVKPSETLSLTCTVSGGSISSSSYYWGWIRQPPGKGLEWIGSVYYSGGASYNPSLKSRATISVDTSKNQFSLNLDSVSAADTAIYYCASIYGSGTFYYYFYMDVWGKGSTVTVSS
VL: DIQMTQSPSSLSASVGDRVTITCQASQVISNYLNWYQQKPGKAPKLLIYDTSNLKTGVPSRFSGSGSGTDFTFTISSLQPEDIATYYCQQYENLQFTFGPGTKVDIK
B2: MR201 (antibody, V domains shown)
VH: QLQLQESGPGLVKPSETLFLSCAVSGGSIAGSTHYWGWIRQPPGKGLEWIGSISESGSTYHNPSLKSRVTISVDTSKNYFSLNLSSVTAADTAVYYCARIVGQSGTFIYYYYAMDVWGTGTLVTVSS
VL: DIQLTQSPSFLSASVGDRVTITCRASQGISSYLAWYQQKPGKAPKLLIYAASTLQRGVPSRFSGSGSGTEFTLTISSLQPEDSATYYCQQLNSYLALIFGGGT

Assays:
Test in all cases: ELISA
[1] = target: T1, Ravn strain cleaved MARV GP ectodomain (Marburg virus, Ravn strain, UniProt Q1PDC7 19-648)
T1 chain: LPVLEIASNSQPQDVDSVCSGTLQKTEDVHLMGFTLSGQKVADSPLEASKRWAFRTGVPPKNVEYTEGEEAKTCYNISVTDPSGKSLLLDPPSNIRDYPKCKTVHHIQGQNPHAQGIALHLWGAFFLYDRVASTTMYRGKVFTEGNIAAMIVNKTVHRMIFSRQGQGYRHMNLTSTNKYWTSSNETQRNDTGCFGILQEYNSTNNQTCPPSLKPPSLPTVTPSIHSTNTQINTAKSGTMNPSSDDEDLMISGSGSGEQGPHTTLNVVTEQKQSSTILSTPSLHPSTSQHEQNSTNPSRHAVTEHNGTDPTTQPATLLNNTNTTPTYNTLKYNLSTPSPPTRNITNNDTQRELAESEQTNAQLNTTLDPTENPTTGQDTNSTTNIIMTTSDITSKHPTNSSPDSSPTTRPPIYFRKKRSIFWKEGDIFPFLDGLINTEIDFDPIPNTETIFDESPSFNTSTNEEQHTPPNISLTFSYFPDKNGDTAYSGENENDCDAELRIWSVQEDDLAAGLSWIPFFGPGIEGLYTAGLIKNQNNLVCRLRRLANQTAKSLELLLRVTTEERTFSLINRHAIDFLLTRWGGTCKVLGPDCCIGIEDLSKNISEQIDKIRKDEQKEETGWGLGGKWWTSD

[2] = target: EBOV Mayinga strain GP ectodomain lacking residues 314-462 of the mucin-like domain (Ebola virus, Mayinga strain, UniProt Q05320 33-650)
[3] = target: T2, Angola strain MARV GP ectodomain containing the mucin-like domain (Marburg virus, Angola strain, UniProt Q1PD50 19-648)
T2 chain: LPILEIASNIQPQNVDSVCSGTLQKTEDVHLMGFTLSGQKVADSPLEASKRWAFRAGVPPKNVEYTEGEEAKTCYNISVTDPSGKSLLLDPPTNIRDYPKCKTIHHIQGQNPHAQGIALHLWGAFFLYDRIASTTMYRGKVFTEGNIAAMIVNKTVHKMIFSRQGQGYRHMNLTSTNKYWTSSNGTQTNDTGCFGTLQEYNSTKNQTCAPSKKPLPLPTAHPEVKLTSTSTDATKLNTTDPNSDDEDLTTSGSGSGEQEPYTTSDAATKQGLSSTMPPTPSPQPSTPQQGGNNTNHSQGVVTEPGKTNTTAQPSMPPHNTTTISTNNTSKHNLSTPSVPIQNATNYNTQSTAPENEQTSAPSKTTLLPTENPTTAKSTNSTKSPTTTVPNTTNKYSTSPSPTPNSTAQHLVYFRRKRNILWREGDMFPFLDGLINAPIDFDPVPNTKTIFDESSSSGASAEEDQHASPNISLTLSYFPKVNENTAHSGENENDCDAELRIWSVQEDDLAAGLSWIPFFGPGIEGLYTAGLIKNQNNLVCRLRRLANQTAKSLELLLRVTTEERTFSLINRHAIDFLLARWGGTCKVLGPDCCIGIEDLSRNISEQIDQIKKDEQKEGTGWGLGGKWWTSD

[4] = target: T3, EBOV Mayinga strain cleaved GP ectodomain (Ebola virus, Mayinga strain, UniProt Q05320 33-650)
T3 chain: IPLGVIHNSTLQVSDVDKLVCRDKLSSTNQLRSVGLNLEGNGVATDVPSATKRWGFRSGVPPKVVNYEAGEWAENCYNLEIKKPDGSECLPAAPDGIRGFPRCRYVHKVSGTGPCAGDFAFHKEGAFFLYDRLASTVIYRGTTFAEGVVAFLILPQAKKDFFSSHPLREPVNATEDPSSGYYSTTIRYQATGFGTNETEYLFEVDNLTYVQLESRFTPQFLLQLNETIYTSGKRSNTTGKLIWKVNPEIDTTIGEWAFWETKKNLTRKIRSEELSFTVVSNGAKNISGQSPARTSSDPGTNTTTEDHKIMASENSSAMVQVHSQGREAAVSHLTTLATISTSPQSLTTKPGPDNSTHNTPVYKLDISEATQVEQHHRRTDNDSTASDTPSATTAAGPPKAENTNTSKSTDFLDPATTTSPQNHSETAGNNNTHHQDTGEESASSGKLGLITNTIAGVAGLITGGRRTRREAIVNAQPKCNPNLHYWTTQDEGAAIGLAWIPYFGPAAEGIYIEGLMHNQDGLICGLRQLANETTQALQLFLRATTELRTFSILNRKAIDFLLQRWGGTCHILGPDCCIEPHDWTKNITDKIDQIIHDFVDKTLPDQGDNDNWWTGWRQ

[5] = target: Angola strain MARV GP ectodomain lacking residues 257-425 of the mucin-like domain (Marburg virus, Angola strain, UniProt Q1PD50 19-648)
[6] = target: T4, EBOV Mayinga strain GP ectodomain containing the glycan cap and mucin-like domain (Ebola virus, Mayinga strain, UniProt Q05320 33-650)
T4 chain: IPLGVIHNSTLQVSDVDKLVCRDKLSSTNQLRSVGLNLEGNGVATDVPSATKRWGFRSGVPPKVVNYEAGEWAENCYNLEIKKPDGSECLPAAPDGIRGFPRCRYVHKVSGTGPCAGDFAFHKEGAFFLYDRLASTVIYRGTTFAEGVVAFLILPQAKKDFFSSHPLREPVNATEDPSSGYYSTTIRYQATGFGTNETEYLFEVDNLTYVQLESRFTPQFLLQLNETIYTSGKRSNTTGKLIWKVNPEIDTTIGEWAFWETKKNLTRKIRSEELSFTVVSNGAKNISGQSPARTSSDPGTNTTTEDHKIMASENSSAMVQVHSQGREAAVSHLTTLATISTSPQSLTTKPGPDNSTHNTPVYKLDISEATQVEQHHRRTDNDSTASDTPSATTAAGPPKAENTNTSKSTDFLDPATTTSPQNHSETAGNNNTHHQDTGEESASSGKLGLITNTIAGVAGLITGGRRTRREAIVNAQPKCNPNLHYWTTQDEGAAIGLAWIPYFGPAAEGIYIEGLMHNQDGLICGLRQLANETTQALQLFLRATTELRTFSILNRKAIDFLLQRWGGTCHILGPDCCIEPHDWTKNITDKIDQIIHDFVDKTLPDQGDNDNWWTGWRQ

Binder	EC50 [1] [µg/mL]	EC50 [2] [µg/mL]	EC50 [3] [µg/mL]	EC50 [4] [µg/mL]	EC50 [5] [µg/mL]	EC50 [6] [µg/mL]
B1	1.1	> 1000	1.4	107	2.3	> 1000
B2	0.5	> 1000	1.5	> 1000	1.9	> 1000
